Source: a protein production outcome set (Wang et al. 2014)

Test: label from the status in PepcDB records
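Note: failed if final PepcDB status was selected cloned or expressed and not failed if soluble or beyond.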

| Sequence | protein production |
| --- | --- |
| MAKLTESMTNVLEGDSMDQDVESPVAIHQPKLPKQARDDLPRHISRDRTKRKIQRYVRKDGKCNVHHGNVRETYRYLTDIFTTLVDLKWRFNLLIFVMVYTVTWLFFGMIWWLIAYIRGDMDHIEDPSWTPCVTNLNGFVSAFLFSIETETTIGYGYRVITDKCPEGIILLLIQSVLGSIVNAFMVGCMFVKISQPKKRAETLVFSTHAVISMRDGKLCLMFRVGDLRNSHIVEASIRAKLIKSKQTSEGEFIPLNQTDINVGYYTGDDRLFLVSPLIISHEINQQSPFWEISKAQLPKEELEIVVILEGMVEATGMTCQARSSYITSEILWGYRFTPVLTLEDGFYEVDYNSFHETYETSTPSLSAKELAELASRAELPLSWSVSSKLNQHAELETEEEEKNLEEQTERNGDVANLENESKV | failed |
| MAKNTFTPELLEKHFTKNEWKKGARIFQANGVKTCALDGEVIRGVVFSERSRESSYLTRLVFDGKFGDIASYCDCYVGRDCKHGSALAQCYIHEHFDRNSIATSETIIDKWLNRFQAQPTRYQPNTQQKSLLYFLKPNPYNEDDFLTLGIKSARPKNSGGWNSSIGSEYSASSLINSAYANDEDVAVLTELMRTNQYGDTIKYFDLFERIIKTNRSFWHTTYDLSEPVTLSEPLEAEWQWLALGNSLHTLKLVLMQPSESIRIIKAQPLCFYDEEKNCFGKINTNTQCDFEAGLLNSPIFEEDKLPWIMSKLSMSLGDAVKRLPKPKTKYSQELTQPDVYLHFTTPVASNRQTGYVQVNFSYQGNLVNPHDENVTITPSNVTKLSIDSDAQSDADSNIESGAYSNIEDEVERENVSPREIKIYRDLAFEQTVIDKLTTLKFNPQPKPKRYTYTSQDDLNKSKTPEFAMLMQGSVLWQRFLHQELSPLEDLGWHITFADDFYYKALSTDSVFDAEVMETDDHDFFSLGLNLTIDGKKMPAFPILLSAIEQLPRSALLDREKEDLISPDSPIYVDLDNGGFVALRYQSVQPILKQFIELFMPNALSHDGTIELSRFQGHQTLSMLDDQGMIAKGTSKLRALADKLKDFQQVTTIPVPEGLNATLRTYQHQGLNWLQFLREYQLNGILADDMGLGKTIQTLAHLLIEKQQGRLTKPILIVAPTSVIFNWANEIDKFTPQLSYQVLHGNKRHEQFGCLEGVENGENQVDIIITSYALITKDLAHYTDRKFYYLVLDEAHYIKNTKTKLYQAFLTLKAQHKLCLTGTPMENHLGEFWAQFNFLLPGFLGGQRQFTKLFRTPIEKHGELERKQLLNQRIKPFILRRTKDKIATELPPKTEIIQTLRIEGKQAELYESVRLAMDSRLKDIIADKGLKRSQIEVLDALLKLRQVCNHPKLLKLEGAKKVNQSAKLDYLMETLPEQIDEGRKILIFSQFTSMLSLIEDELIDAGIGYVKLTGSTTKRQEVVDKFQRGEVPVFLISLRAGGVGLNLTAADTVIHFDPWWNPAVENQATDRAYRIGQNKPVFVYKLIIENSIEEKIQKIQQNKAELAKALLSEEVSDNKLSLTDDILDSLLTPLS | failed |
| MAKSEEIIRERYKVMAPRIIKALNQRNFEAYFCETSEKAVECALSLIPQGASVAWGGSMTLEEIGLIQRLKEGNYQVIDRDTAKSQEERFSLMRQALLSDVYLASVNAMSEDGIMVNIDGRGNRISAIAFGPKTVILVVGMNKICRDLESARKRAHTYAAPNNALRLGLELPCTKTGCCFDCNKNNPSSICAQIVEMHSSIVPGRIKVILVGENLGL | failed |
| MAKSPKKSKSRLWFLVHSWLALPIWFFVLIVCFTGMLAVVSQEIVWLADPAARANKPDADTERMSFQQVLEALNKAEPDMVVERLSQPDGSHFAVKANVTLPDGTSPTLYVNPYTGTIQGRTPDFNFEAFTRALHGWWLVPFTNGFSWGWYLVSLLGLPMLASLVTGLVVYKKFWKGFFKPVRTGHGSRIFWGDLHRLSGVWSIWFIAVISITGTWFLIQAILSDNHITISSRPIVPVIAREEVPQTPDGSPASRIDLDEAARLAGLAIPGLEVTSITLPATAYSHVTLSGPGWYPLMFQSASVNPYTRNVDSQFLISDRSALEFVTESMRPLHTGDFGGLPIKLVWFFFGLILTLMVLSGLLIWTKRTAQATAAALKRSERAPRAAHSETTVEIHS | failed |
| MAKSQIEPGVPITLQELYPSSLFYKEGVSLRVTAMLRGYSVETAIGVIEDGGRSLKINTQNIRDVSFRVGSIYQFIGELHIEQPNNEARTGRNVDGIDMNLYRKTIELLRQFLKEEDNSNMVE | failed |
| MAKVKVLFVRNLANTVTEEILEKAFSQFGKLERVKKLKDYAFIHFDERDGAVKAMEEMNGKDLEGENIEIVFAKPPDQKRKERKAQRQAA | not failed |
| MAKVLVLNASYEPLNITHWQRAVVLLLKDKAEALENNGKLIYANFPLPSVIRLRQYIKVPYKEIPLTRRNVLERDRHTCQYCNYKGEQLTLDHVIPRSRGGGDSWENLVTACVRCNIKKGNRTPREAQMSLNYTPRRPYSSLLFEIIKHTRNDRNHEWRKYVIGILEHHHHHH | failed |
